The test concerns the target T1, CD79b蛋白 (on CHO-K1-CD79b细胞 / A375-CD79b细胞) (Homo sapiens (Human), UniProt P40259 29-229).
T1 sequence: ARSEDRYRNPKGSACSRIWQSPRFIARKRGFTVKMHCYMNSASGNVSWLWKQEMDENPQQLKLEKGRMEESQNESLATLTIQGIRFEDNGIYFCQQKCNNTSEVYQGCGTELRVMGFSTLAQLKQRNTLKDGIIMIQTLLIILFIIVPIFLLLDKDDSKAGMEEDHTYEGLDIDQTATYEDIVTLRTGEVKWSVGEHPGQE
The test is described as follows: flow cytometry on CHO-K1-CD79b cells, Alexa-647 anti-human Fc detection.

B1: 抗体CD3×CD79b (bispecific antibody, human IgG1, kappa, L234A L235A)
scFv: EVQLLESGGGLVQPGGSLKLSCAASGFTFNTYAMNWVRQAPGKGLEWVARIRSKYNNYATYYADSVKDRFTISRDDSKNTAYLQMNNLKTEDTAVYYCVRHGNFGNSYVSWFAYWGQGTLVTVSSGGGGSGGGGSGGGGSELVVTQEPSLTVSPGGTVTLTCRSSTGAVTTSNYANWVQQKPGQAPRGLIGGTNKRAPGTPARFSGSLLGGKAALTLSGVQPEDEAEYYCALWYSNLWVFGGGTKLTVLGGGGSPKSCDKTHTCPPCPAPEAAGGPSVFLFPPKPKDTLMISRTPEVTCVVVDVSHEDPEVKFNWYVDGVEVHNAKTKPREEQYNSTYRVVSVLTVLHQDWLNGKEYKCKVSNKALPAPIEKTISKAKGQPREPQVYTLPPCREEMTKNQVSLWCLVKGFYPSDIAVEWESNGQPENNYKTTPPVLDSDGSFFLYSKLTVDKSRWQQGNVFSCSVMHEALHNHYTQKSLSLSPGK
heavy: EVQLVESGGGLVQPGGSLRLSCAASGYTFSSYWIEWVRQAPGKGLEWIGEILPGGGDTNYNEIFKGRATFSADTSKNTAYLQMNSLRAEDTAVYYCTRRVPIRLDYWGQGTLVTVSSASTKGPSVFPLAPSSKSTSGGTAALGCLVKDYFPEPVTVSWNSGALTSGVHTFPAVLQSSGLYSLSSVVTVPSSSLGTQTYICNVNHKPSNTKVDKKVEPKSCDKTHTCPPCPAPEAAGGPSVFLFPPKPKDTLMISRTPEVTCVVVDVSHEDPEVKFNWYVDGVEVHNAKTKPREEQYNSTYRVVSVLTVLHQDWLNGKEYKCKVSNKALPAPIEKTISKAKGQPREPQVCTLPPSREEMTKNQVSLSCAVKGFYPSDIAVEWESNGQPENNYKTTPPVLDSDGSFFLVSKLTVDKSRWQQGNVFSCSVMHEALHNHYTQKSLSLSPGK
light: DIQLTQSPSSLSASVGDRVTITCKASQSVDYEGDSFLNWYQQKPGKAPKLLIYAASNLESGVPSRFSGSGSGTDFTLTISSLQPEDFATYYCQQSNEDPLTFGQGTKVEIKRTVAAPSVFIFPPSDEQLKSGTASVVCLLNNFYPREAKVQWKVDNALQSGNSQESVTEQDSKDSTYSLSSTLTLSKADYEKHKVYACEVTHQGLSSPVTKSFNRGEC
notes: Three-chain knob-into-hole bispecific made in ExpiCHO cells and purified on Protein A; also called CD3×CD79b抗体; CD3×CD79b双特异抗体
With B1, the binding result is recorded as “binds”.

Source of the values: patent CN115368446A (HEFEI TIANGANG IMMUNOLOGY PHARMACEUTICAL CO LTD, dated 2022).
